Measured values published in a protein production outcome set (Wang et al. 2014).

Assay: label from the status in PepcDB records

Sequence: MRKFIISFCCYVFFIFTLAAQDKAPHYTVIVSLDAFRWDYPAMYDTPNLNQMAREGVKATMLPSYPASTFPNHYTLATGLVPDHNGIINNTFWDVKRRRQYSMGDPATRNNPDYYLGEPIWITAQKQGVKTGNVYWVGSDIAIKGGYPTYYREYAEKPRLTFEQRVDSTIALLEKPEAERPRLVMLYFEEPDGVTHHHGPRSVEAAAIIHRMDSLVGMLRQGIASLPFGKDVNLIVTADHGMTEISDDRVVDMNKYLRPEWCEAVDGRTPTSIFTKPEYRDSVYNALKDVPHIHVWKKEEIPAELNYGSSDRIGDIVVAPELGWQFTDVPRALKGAHGYFPQSPDMQVMFRACGPDFKAGYESKGFVNVDIYPLLAHLLKITPEKTDGQFERIKDILKDVSFLEHHHHHH
- protein production: failed

Sequence: MRKFILYWALYGLIELIMYVWLFQVIGFWPLLFIQIASSAFGVFIFKRLGGNLFRNLRDGRTVAPYLLDSLCFFIAGFLLIIPGVITTILGLLIFIPFSRKLLKPKLTKWLGNQKKHTQYYYFDM
- protein production: failed

Sequence: MRKGLIRNGSYSILLVIYRWFCWAIVLIGIIPVNGVISLAYAATPADWNKGAYAYSAEQTPLSAILADFANSHGVDLVLGNIADNEVTAKIRADNPTLFLDRLALEHRFQWFVYNNALYVSPQDEQASVRLEISPDAAPDIKQALSGIGLIDSRFGWGELPEEGVVLVTGPKAYIDLIRNFSQQREKQDERRKVMIFPLRYASVSDRTLQYRDQKITIPGVATILNELMDGQRAAPAGASGPMPVQPDTGMEAMRDSTRSLMTRLATRTSPGRSGEASSRVTLSGKISADVRNNALLIRDDEKRRAEYQQLVEHIDVPQNLVNIDAIILDVDRTALSRLEANWQAQLGNVSAGSTMMMGRSTLFVSDFKRFFADIQALEGEGTASIVANPSVLTLENQPAIVDFSRTAFITATGERVADIQPVTAGTSLQVTPRVIGEGAQRSIQLVIDIEDGQVETGREGEASGVKRGTVSTQALIGENRALVLGGFHVEESGDRDRRIPILGDIPLLGKLFTSTRHEVSRRERLFILTPHLVGDQTDPTRYVSSVNRQQLNGAMNRVAQRNGKTDLYSLIEGAFRDLASRQLPAGFQADSKGARLGEVCRSQSGLIYDSSRYQWYGNGQVRLSVGVVRNGGTQPQRFDEAACASSRTLAVAVWPKTTLAPGESSEVFLALQPALTAQPTRRNVLISN
- protein production: failed

Sequence: MRKISIVIPVYNTEKYLKLSVDSVLSQSYQDWELILVDDGSKDGSGAICDKYASEDSRIKVYHTVNQGVTAARGYGVEQSTGEWICFLDADDTLADDALQVMLGKSADCDIVIGNKRIVSGNDVTEEWMNQDDRQLQAVEFLDGLIRNKISQYITGRIFRRILFDNGTICIPRELIMAEDFIMNVQLGNKAKKIAVIRDMVYGYHVYGESVSHTFRTNLEYESRFCDCLFSALKTGGYYEEVKEAFTFQKVRALKSAFMAQQGRVNLRHPFLQEVRKEAKSIGLSRGWKLFLYLLPLKYIGYIFFRSLNKLEHHHHHH
- protein production: not failed

Sequence: MRKITQAISAVCLLFALNSSAVALASSPSPLNPGTNVARLAEQAPIHWVSVAQIENSLAGRPPMAVGFDIDDTVLFSSPGFWRGKKNFSPESEDYLKNPVFWEKMNNGWDEFSIPKEVARQLIDMHVRRGDAIFFVTGRSPTKTETVSKTLADNFHIPATSMNPVIFAGDKPGQNTKSQWLQDKNIRIFYGDSDNDITAARDVGARGIRILRASNSTYKPLPQAGAFGEEVIVNSEY
- protein production: failed

Sequence: MRKKGNKLIEFVSKIMALVMAVTLLSSLPVQNVLANDSKETKGEEYEIYPIPQSIKYDNGTVTLGTDANVVFEEGIDEATKNRLLEVLSIKGINYEESNEIKEDKTNFLIGINNSEGVVDKYFTDNNLANDSHFENHDAHVVSVKGNVIAVLGKNTDSAFYGITSLKAIFNQLEGNELKELLIEDYSDGQWRGFIEGYYGIPWSNENRKDLMKFGGDFKMNSYIFAPKDDQYHSLKWREPYPAEKLAEIKEMVDVGIATKNKFIWTIHPFLKDGMNFGSEESYKADLEKIIAKFEQLYSVGVRQFGVLADDAEGEANNQVKLMEDLEKWRLQKGDVYEFIFVPKVYTKESAGGDVNNEYLKTIGTMPETIDIMWTGDVILGYVTQETFEFFEEAVGRQAFMWLNWPVNDINNKRLLMGKGEMLDPTVTNFKGIVTNPMQEAQASKVALFAIADYGWNRADFDMDKSWKDSFKYIEPDASEELYTFAKHMSDPAPNWHGLSLEESEELRPVIEEFTRKLWEKESVLDYSKVILDEYQEILDATNNFATKSKNELLKSEIKGWVDSLRDLAESTIAYINSAVAFEKGNYEEAMKYYVLGEDEYTASRSHRTPVINGQSRPEPGTRHLIPFIKDLSKIIGDNIDQVINPDTTKLTLRPYTNMSPLYWGHVQNIADGDNTRYSCMWIRNSAKEGDYVAVELNEVTKVNSITFEQGQDEGDAFNYGKFQYSMDGENWIDVDGVDYGPKMHKIVVEGLDITAKYLRFIPTKEILNNWIAVREFSVNKKDENNMKVNAYTNVEALAKNEVSISEEKATLSDLNDVTLSKGEYVGIKLNKLREVTNIVSDFTNNDNLTLETSINGVEWVEAKTLSETINARYVRIINNTEKDVTFNLNKLEAEYSNNDVNFDIRPTAEAKFEPKNLIDGKLNTAFKPLESAPKSGQLTYRISDKTDIKKFTIVQNPNTISNAIVSVRNENGWKEVGSLGKSFNEFNTEDFENVFEIKVEWDGFAPTIYEIGLSTIKEEVQVDKSKLEEAIKEVEKLKEEDYTKDSWSNLIEKLNLAKEVLSKEDATQDEVDNAIKALNEAISGLVKKDETEGPVDPEKPVDPENPDNTEKPENPEGTDKPQTPDKPEGNLPNTGGASSSIFLQLGVVMMASGAFVLKRKKR
- protein production: failed

Sequence: MRKLAAFLGLVGLLSLGLAQSAQEILDRVEKNLSTPWQATVQGRIQGPGGEEELLARVYALPQARLFRVEFLKPGSLEGNFTVITEKEVWNYLYLTNQLVISPREKAKIQGLGFAPQGLGDLKALSEQVDLRLEGEVRLPEGMAWKLVGRSKENQGFAAMELYILKADPRPLRFVFLDEKGKVLADLKVVEFKRTNLTEAQLKRYPKDAQVVRR
- protein production: not failed

Sequence: MRKNKLSFKEKAGAEQEECLCFCEGEASREAMFQAPIELPEGFVVDPAEAVANVTWNADSLSCVSDRCLIQTGPEPDEVGVQFAVRLQGTVTLLVSVSPVRNQYGQGDGAVSVIHNAEIDQVVYYSDESDDCPDISDITIENLVVVPPFYGSPLSVTGTIVLVPEPEPVYAFTANPNDQSVSVIDTNTDTVVTTIALPYNPAGIEITPDKSAVFVLHPNNNVISVIDYDTLTVTATILLDQPPRLIRFIPNHEFAYVFTGTAVYVIGIDTLTVDRSIPVEGYDVAIDPNGLFAYVLNFGIVQKVDLTTGEVTGTIERELIVSTIETNWPERYAYVLEQEFFFNYLTVIDLNTFTISSTQELEYEGEYRMFTSGAEVYLYDGFTGNLYSVSPNGAGVIGNVPQSATDYAFTPNGDFLYATRFIEQSIIVYNTDDYSEETVISLGVSPGAITILEHHHHHH
- protein production: not failed

Sequence: MRKRYVMTEQVQSGPRLDWLLDGLVDRIPEIRCAIVLSGDGLLIGKSKNLRRDDAEHLSAVGSGMHSLARGAARHFHGGEVQQTVIQMDRAFLFVTAAGRGARLAAIASEQVDVGMMAFEMGTLVKQVGQYLSAAPRVETPSAGHIQDA
- protein production: failed

Sequence: MRKSLKMTIGIGLILSCFGLILVGIGLSSGGIDKLQVKDDQAPKKEVQFDNIQSLDLDLSVRNIKIESSQDQHFKLTYYKKLDEEISHKVQHQKLNLKQKEKFRIHFFVLSDFFNWFHQDDTNTVTLAIPKNVQLKDVSIKNNVGDITIKNQQASKITVHQNTGNLNIYNSQIAKGKVSSDVGNIAIQNSSLSNIDVVDHTGDISAENLTVLNLVRMTNNIGNTNVSLSPQSAQATIVSTKTDVGHTDISHQLLQGYSGKNRLAVKGDTGNIQIK
- protein production: failed

Sequence: MRKVSISILFMLVSLTWGTTWLAMRIAVETIPPVFATGMRFMFAAPFLIIIAWLRKKTLLFPPGQRLFQFVICIFYFSIPFSLMIYGETYVNSGLAAIIFANMPVAVLIASVLFLNEKAKLMQIAGLTIAITALTGILLEEANTSTESHWQGITALISAVLIHAIIYTQCKKRSCTVSVITFNALPCLLAGLILSATGWFFERPQVSTFSVHSILATLYLGAFAGVFGILCYFALQQKANAFQASLVFLIFPLIAVSLEDYIYGYAISTHSMLLIIPLAIGIFLTLVARNIPVTSRCRDNSSQE
- protein production: failed

Sequence: MRKYLLIGVSAFVLGAGTMAYISPIAQANNAPKAQTYKLLELFGDVLGTVEDQYVTEVDDKKLIEAALDGMLTSLDPHSGYLAPDAFEDMQDTTRGEYGGLGLEVTSEEGVVKVISPMDGTPASRAGIQAGDYITAVNGQSVLGLTVNEAVKQMRGTAGEAVTLTIAREKTDPFDVKLVREVIKPKAAIARMEGDYGYVRLPGFNEKATDALASSVSELKSKNPKMKGLILDLRNNPGGLLDQAVGVADVFLDGGEVVSQRGRDPRNIQRYNARGGDMLNGLPMVVLINQGSASAAEIVAGALQDRKRAEVVGLTSFGKGSVQTVIPLRGGADGALKLTTARYFTPSGRSIQKTGIAPDLEVAQTRDQAQDIANRVWFSEASFKNALNADEGKSRVGAHTPAEAPPTGFDDKKGDFQLQRAIAVLQAGGVAKTPKLPKPAAKVAEVTAKAAAAAGGKTPVTEVK
- protein production: failed

Sequence: MRLAFWLYEGTALHGVSRVTNSMKGVHTVYHAPQGDDYITATYTMLERTPEFPKLSISVVRGQDLARGTSRLPGTVEQVDKHYKPELIVVAPSCSTALLQEDLGQMARASGVDQSKIMVYAVNPFRVAENEAAEGLFTELVRRFAAEQPKTEKPSVNLLGFTSLGFHLRSNLTSLRRMLKTLGIEVNVVAPWGAGIDDLKKLPAAWVNIAPFREIGCQAAGYLKEKFGMPSITEAPLGVNATLRWLRAIIAEVNKIGAEKGMAPMAMPELRDFSLDGQSAPSSVPWFARTADMESFSNKRAFVFGDATQVVGVTKFLKDELGMKIIGAGTYLPKQADWVREQLEGYLPGELMVTDKFQEVSAFIEEEMPELVCGTQMERHSCRKLDVPCMVISAPTHIENHLLGYYPFFGFDGADVMADRVYTSAKLGLEKHLIDFFGDAGLEYEAEEPEAFTEPTMSGNGTVASVSSAEAPSEAAVVTATATGELSWTAEAEKMLGKVPFFVRKKVRKNTDNYAREIGEPVVTADVFRKAKEHLGGLEHHHHHH
- protein production: failed

Sequence: MRLAGVGKSCLFAGRCAGIRPRRRLRWVLHFTATVPLNSMSSRRAFLRQCGLALAAAPALSSLPPWLSSADGFTSLRGGIGTFTQRGGTIGWLATDDGIAVVDTQSPQSAPDCWNGLRERSDSPLAMVINTHHHGDHVGGNGVFARHTDRLVAHANVPELMRAGAEDGAADEKTYPTETFQDTWSEPLGDETITLRYRGPAHTGGDAIVVFENANIVHVGDLVFNRAYPFIDVGGGADSQGWIDSLETIHGALDDDTIVIHGHGNPDFGVTGGREDLLVMRDFLSALNEYVTQQRQAGASLDEMKQTKVLDGFEAFNFDWALSLADCIEAVYREQTAG
- protein production: failed

Sequence: MRLDRNPWHWRIWVCIAVLALWPRAASADTITPERIADALSKLDALAQGAVADGGVPGLAIAVVHDDEVIFLRGFGHREAGKPEAVDADTVFQIASLSKPVSATVVAALVSDGIVSWDSKVADLDPAFRLADPYPTSQLTVRDLFSHRSGLPGTAGDDLEDIGYDRAEILHRLRFVPPSSSFRAGYSYSNFGLTEGAVAAAMPTGKSWEEVAQEKLYRPLGMASTSSRHSDFVKHADRAALHIKVDGAWAAKIERDPDAQAPAGGVSSTARDLSQWVRLILGNGVYAGKTLIAADALDQTHVPLMTRGKNPVSGGESFYGLGWNVEFGRHGLSWGHAGAFSVGARTLVTIFPQDKLGIVIIANAFPTGVPEGLSDSFADLVFDGSVQKDWVKAWDGIYAGMFGPVVEAAKATYAAPPSPARPARPASAYAGRYANDFFGDAVVASAGDGLVLKVGPHGARSYSLAHFDGDLFLTYPDAETPDRPTGVSFVVGPDGKASAMTIGFLDDNHLGTLRRVGD
- protein production: failed
